Test results from publication PMC9352680, “A comprehensive thermodynamic model for RNA binding by the Saccharomyces cerevisiae Pumilio protein PUF4”.

T1: PUF4 RNA-binding domain (Saccharomyces cerevisiae, UniProt P25339 537-888)
T1 sequence: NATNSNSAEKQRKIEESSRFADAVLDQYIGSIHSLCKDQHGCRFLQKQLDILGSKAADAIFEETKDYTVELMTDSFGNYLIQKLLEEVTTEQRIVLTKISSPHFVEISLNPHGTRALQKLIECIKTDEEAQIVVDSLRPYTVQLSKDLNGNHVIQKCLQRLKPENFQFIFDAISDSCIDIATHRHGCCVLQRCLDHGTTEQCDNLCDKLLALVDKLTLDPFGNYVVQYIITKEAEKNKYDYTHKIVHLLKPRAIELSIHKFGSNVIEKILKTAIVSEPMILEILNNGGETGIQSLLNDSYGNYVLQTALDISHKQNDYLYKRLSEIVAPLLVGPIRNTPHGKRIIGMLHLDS


The binders below were run against T1, PUF4 RNA-binding domain (assay: Mg; RNA-MaP; 20 mM Na-HEPES pH 7.4, 30 mM KOAc, 0.75 mM MgCl2, 0.1% Tween-20, 5% glycerol, 0.1 mg/mL BSA, 2 mM DTT; 25 C; 0.0125-409.6 nM protein). Conditions: tags: N-His6-TEV cleaved; C-SNAP kept, Cy3B-labelled; label: tethered on chip by stalled RNA polymerase.

Binder	Kd [nM]
UCUCUUUUUAUAUUAUCUCUU (ssRNA) [Ia_S1_P4E.1_K4.1_C4.1_H4.1_[G2T]_A4.1_F4.1_T4.1]	655
UCUCUUUGUUUAUAAUCUCUU (ssRNA) [Ib_S1_P4E.1_K4.1_C4.1_H4.1_[A4T]_A4.1_F4.1_[T8A]_T4.1]	495
UCUCUUCGUAUAUUGUCUCUU (ssRNA) [Ib_S1_P4E.1_K4.1_C4.1_H4.1_[T1C]_A4.1_F4.1_[A9G]_T4.1]	663
UCUCUUUGUCUAUAAUCUCUU (ssRNA) [Ib_S1_P4E.1_K4.1_C4.1_H4.1_[A4C]_A4.1_F4.1_[T8A]_T4.1]	1620
Ic_S2_P5E.1_K5.1_C5.1_H5.1_A5.1_[T5C]_[T6C]_F5.1_[T9C]_[A10T]_T5.1 (ssRNA) RNA: UUUGAUUAAUAUGAUAUCGUUCUUUCUUGUACCAUCUUUCUUUCUCGAUAUCAUAUUAAUCUUU	5.17
Ic_S2_P5E.1_K5.1_C5.1_H5.1_A5.1_[T5C]_[T6C]_[A7T]_F5.1_[T9G]_[A10G]_T5.1 (ssRNA) RNA: UUUGAUUAAUAUGAUAUCGUUCUUUCUUGUACCUUGGUUCUUUCUCGAUAUCAUAUUAAUCUUU	210
Ic_S2_P5E.1_K5.1_C5.1_H5.1_A5.1_[T5A]_[T6C]_[A7T]_F5.1_[T8G]_[T9C]_[A10T]_T5.1 (ssRNA) RNA: UUUGAUUAAUAUGAUAUCGUUCUUUCUUGUAACUGCUUUCUUUCUCGAUAUCAUAUUAAUCUUU	189
Ic_S2_P5E.1_K5.1_C5.1_H5.1_A5.1_[T5A]_[T6A]_[A7T]_F5.1_[T8A]_[T9A]_[A10C]_T5.1 (ssRNA) RNA: UUUGAUUAAUAUGAUAUCGUUCUUUCUUGUAAAUAACUUCUUUCUCGAUAUCAUAUUAAUCUUU	30.3
Ic_S2_P5E.1_K5.1_C5.1_H5.1_A5.1_[T5A]_[T6C]_[A7T]_F5.1_[T9G]_[A10T]_T5.1 (ssRNA) RNA: UUUGAUUAAUAUGAUAUCGUUCUUUCUUGUAACUUGUUUCUUUCUCGAUAUCAUAUUAAUCUUU	304
Ic_S2_P5E.1_K5.1_C5.1_H5.1_A5.1_[T5A]_[A7C]_F5.1_[T9C]_[A10T]_T5.1 (ssRNA) RNA: UUUGAUUAAUAUGAUAUCGUUCUUUCUUGUAAUCUCUUUCUUUCUCGAUAUCAUAUUAAUCUUU	36.5
Ic_S2_P5E.1_K5.1_C5.1_H5.1_A5.1_[T5C]_F5.1_[T8C]_[T9C]_[A10C]_T5.1 (ssRNA) RNA: UUUGAUUAAUAUGAUAUCGUUCUUUCUUGUACUACCCUUCUUUCUCGAUAUCAUAUUAAUCUUU	245
Ic_S2_P5E.1_K5.1_C5.1_H5.1_A5.1_[T5C]_[T6C]_[A7G]_F5.1_[T8G]_[A10C]_T5.1 (ssRNA) RNA: UUUGAUUAAUAUGAUAUCGUUCUUUCUUGUACCGGUCUUCUUUCUCGAUAUCAUAUUAAUCUUU	> 2300
Ic_S2_P5E.1_K5.1_C5.1_H5.1_A5.1_[T5C]_[T6G]_[A7C]_F5.1_[T8C]_[T9C]_[A10C]_T5.1 (ssRNA) RNA: UUUGAUUAAUAUGAUAUCGUUCUUUCUUGUACGCCCCUUCUUUCUCGAUAUCAUAUUAAUCUUU	140
Ic_S2_P5E.1_K5.1_C5.1_H5.1_A5.1_[T5A]_[A7G]_F5.1_[T8G]_T5.1 (ssRNA) RNA: UUUGAUUAAUAUGAUAUCGUUCUUUCUUGUAAUGGUAUUCUUUCUCGAUAUCAUAUUAAUCUUU	48.9
Ic_S2_P5E.1_K5.1_C5.1_H5.1_A5.1_[T5A]_[T6C]_[A7C]_F5.1_[T8A]_[A10G]_T5.1 (ssRNA) RNA: UUUGAUUAAUAUGAUAUCGUUCUUUCUUGUAACCAUGUUCUUUCUCGAUAUCAUAUUAAUCUUU	751
Ic_S2_P5E.1_K5.1_C5.1_H5.1_A5.1_[T6G]_[A7T]_F5.1_[T9C]_[A10C]_T5.1 (ssRNA) RNA: UUUGAUUAAUAUGAUAUCGUUCUUUCUUGUAUGUUCCUUCUUUCUCGAUAUCAUAUUAAUCUUU	11.9
Ic_S2_P5E.1_K5.1_C5.1_H5.1_A5.1_[T5C]_[T6C]_F5.1_[A10T]_T5.1 (ssRNA) RNA: UUUGAUUAAUAUGAUAUCGUUCUUUCUUGUACCAUUUUUCUUUCUCGAUAUCAUAUUAAUCUUU	2.17
Ic_S2_P5E.1_K5.1_C5.1_H5.1_A5.1_[T5C]_[T6A]_[A7C]_F5.1_[T9C]_[A10C]_T5.1 (ssRNA) RNA: UUUGAUUAAUAUGAUAUCGUUCUUUCUUGUACACUCCUUCUUUCUCGAUAUCAUAUUAAUCUUU	5.44
Ic_S2_P5E.1_K5.1_C5.1_H5.1_A5.1_[T6A]_[A7C]_F5.1_[T9A]_[A10G]_T5.1 (ssRNA) RNA: UUUGAUUAAUAUGAUAUCGUUCUUUCUUGUAUACUAGUUCUUUCUCGAUAUCAUAUUAAUCUUU	1.41
Ic_S2_P5E.1_K5.1_C5.1_H5.1_A5.1_[T5G]_[T6C]_[A7T]_F5.1_[T8A]_[A10T]_T5.1 (ssRNA) RNA: UUUGAUUAAUAUGAUAUCGUUCUUUCUUGUAGCUAUUUUCUUUCUCGAUAUCAUAUUAAUCUUU	43.1
Ic_S2_P5E.1_K5.1_C5.1_H5.1_A5.1_[T5C]_[T6C]_F5.1_[T8C]_[T9C]_[A10C]_T5.1 (ssRNA) RNA: UUUGAUUAAUAUGAUAUCGUUCUUUCUUGUACCACCCUUCUUUCUCGAUAUCAUAUUAAUCUUU	347
Ic_S2_P5E.1_K5.1_C5.1_H5.1_A5.1_[T5C]_[T6C]_F5.1_[T8G]_[A10C]_T5.1 (ssRNA) RNA: UUUGAUUAAUAUGAUAUCGUUCUUUCUUGUACCAGUCUUCUUUCUCGAUAUCAUAUUAAUCUUU	192

Binder	Kd [nM]
Ic_S2_P5E.1_K5.1_C5.1_H5.1_A5.1_[T5A]_[A7T]_F5.1_[T8A]_[T9C]_[A10G]_T5.1 (ssRNA) RNA: UUUGAUUAAUAUGAUAUCGUUCUUUCUUGUAAUUACGUUCUUUCUCGAUAUCAUAUUAAUCUUU	761
Ic_S2_P5E.1_K5.1_C5.1_H5.1_A5.1_[A7C]_F5.1_[T8G]_[T9G]_[A10T]_T5.1 (ssRNA) RNA: UUUGAUUAAUAUGAUAUCGUUCUUUCUUGUAUUCGGUUUCUUUCUCGAUAUCAUAUUAAUCUUU	475
Ic_S2_P5E.1_K5.1_C5.1_H5.1_A5.1_[T5A]_[A7G]_F5.1_[T8C]_[A10T]_T5.1 (ssRNA) RNA: UUUGAUUAAUAUGAUAUCGUUCUUUCUUGUAAUGCUUUUCUUUCUCGAUAUCAUAUUAAUCUUU	423
Ic_S2_P5E.1_K5.1_C5.1_H5.1_A5.1_[T6C]_[A7G]_F5.1_[T9A]_[A10C]_T5.1 (ssRNA) RNA: UUUGAUUAAUAUGAUAUCGUUCUUUCUUGUAUCGUACUUCUUUCUCGAUAUCAUAUUAAUCUUU	28
Ic_S2_P5E.1_K5.1_C5.1_H5.1_A5.1_[T5C]_[A7G]_F5.1_[T9A]_[A10T]_T5.1 (ssRNA) RNA: UUUGAUUAAUAUGAUAUCGUUCUUUCUUGUACUGUAUUUCUUUCUCGAUAUCAUAUUAAUCUUU	2.45
Ic_S2_P5E.1_K5.1_C5.1_H5.1_A5.1_[T5C]_[T6A]_F5.1_[T9A]_T5.1 (ssRNA) RNA: UUUGAUUAAUAUGAUAUCGUUCUUUCUUGUACAAUAAUUCUUUCUCGAUAUCAUAUUAAUCUUU	0.983
Ic_S2_P5E.1_K5.1_C5.1_H5.1_A5.1_[T6G]_[A7C]_F5.1_[T8C]_[T9C]_[A10T]_T5.1 (ssRNA) RNA: UUUGAUUAAUAUGAUAUCGUUCUUUCUUGUAUGCCCUUUCUUUCUCGAUAUCAUAUUAAUCUUU	582
Ic_S2_P5E.1_K5.1_C5.1_H5.1_A5.1_[T5C]_[T6A]_F5.1_[T8A]_[T9A]_[A10T]_T5.1 (ssRNA) RNA: UUUGAUUAAUAUGAUAUCGUUCUUUCUUGUACAAAAUUUCUUUCUCGAUAUCAUAUUAAUCUUU	8.8
Ic_S2_P5E.1_K5.1_C5.1_H5.1_A5.1_[T6G]_[A7T]_F5.1_[T8A]_[T9C]_[A10T]_T5.1 (ssRNA) RNA: UUUGAUUAAUAUGAUAUCGUUCUUUCUUGUAUGUACUUUCUUUCUCGAUAUCAUAUUAAUCUUU	26.3
Ic_S2_P5E.1_K5.1_C5.1_H5.1_A5.1_[T5C]_[T6C]_[A7C]_F5.1_[T8G]_[T9C]_[A10C]_T5.1 (ssRNA) RNA: UUUGAUUAAUAUGAUAUCGUUCUUUCUUGUACCCGCCUUCUUUCUCGAUAUCAUAUUAAUCUUU	1000
Ic_S2_P5E.1_K5.1_C5.1_H5.1_A5.1_[T5C]_[T6A]_[A7G]_F5.1_[T9C]_[A10C]_T5.1 (ssRNA) RNA: UUUGAUUAAUAUGAUAUCGUUCUUUCUUGUACAGUCCUUCUUUCUCGAUAUCAUAUUAAUCUUU	13.5
Ic_S2_P5E.1_K5.1_C5.1_H5.1_A5.1_[T5A]_[T6A]_[A7T]_F5.1_[A10T]_T5.1 (ssRNA) RNA: UUUGAUUAAUAUGAUAUCGUUCUUUCUUGUAAAUUUUUUCUUUCUCGAUAUCAUAUUAAUCUUU	17.4
Ic_S2_P5E.1_K5.1_C5.1_H5.1_A5.1_[T6A]_[A7G]_F5.1_[T8C]_[T9C]_[A10T]_T5.1 (ssRNA) RNA: UUUGAUUAAUAUGAUAUCGUUCUUUCUUGUAUAGCCUUUCUUUCUCGAUAUCAUAUUAAUCUUU	61.4
Ic_S2_P5E.1_K5.1_C5.1_H5.1_A5.1_[T5G]_[A7T]_F5.1_[T8G]_[T9C]_[A10T]_T5.1 (ssRNA) RNA: UUUGAUUAAUAUGAUAUCGUUCUUUCUUGUAGUUGCUUUCUUUCUCGAUAUCAUAUUAAUCUUU	436
Ic_S2_P5E.1_K5.1_C5.1_H5.1_A5.1_[T5A]_[T6C]_[A7C]_F5.1_[T8C]_[T9A]_T5.1 (ssRNA) RNA: UUUGAUUAAUAUGAUAUCGUUCUUUCUUGUAACCCAAUUCUUUCUCGAUAUCAUAUUAAUCUUU	> 2300
Ic_S2_P5E.1_K5.1_C5.1_H5.1_A5.1_F5.1_[T8A]_[T9C]_[A10T]_T5.1 (ssRNA) RNA: UUUGAUUAAUAUGAUAUCGUUCUUUCUUGUAUUAACUUUCUUUCUCGAUAUCAUAUUAAUCUUU	558
Ic_S2_P5E.1_K5.1_C5.1_H5.1_A5.1_[T5A]_[T6C]_[A7C]_F5.1_[T9C]_[A10G]_T5.1 (ssRNA) RNA: UUUGAUUAAUAUGAUAUCGUUCUUUCUUGUAACCUCGUUCUUUCUCGAUAUCAUAUUAAUCUUU	563
Ic_S2_P5E.1_K5.1_C5.1_H5.1_A5.1_[T5G]_[T6C]_F5.1_[T9C]_T5.1 (ssRNA) RNA: UUUGAUUAAUAUGAUAUCGUUCUUUCUUGUAGCAUCAUUCUUUCUCGAUAUCAUAUUAAUCUUU	87.8
Ic_S2_P5E.1_K5.1_C5.1_H5.1_A5.1_[T5G]_[A7C]_F5.1_[T9A]_T5.1 (ssRNA) RNA: UUUGAUUAAUAUGAUAUCGUUCUUUCUUGUAGUCUAAUUCUUUCUCGAUAUCAUAUUAAUCUUU	6.4
Ic_S2_P5E.1_K5.1_C5.1_H5.1_A5.1_[T6A]_F5.1_[T8C]_[T9G]_[A10T]_T5.1 (ssRNA) RNA: UUUGAUUAAUAUGAUAUCGUUCUUUCUUGUAUAACGUUUCUUUCUCGAUAUCAUAUUAAUCUUU	15
Ic_S2_P5E.1_K5.1_C5.1_H5.1_A5.1_[T5G]_[A7C]_F5.1_[T8A]_[A10G]_T5.1 (ssRNA) RNA: UUUGAUUAAUAUGAUAUCGUUCUUUCUUGUAGUCAUGUUCUUUCUCGAUAUCAUAUUAAUCUUU	450
UCUCUUGGUAUAUUGUCUCUU (ssRNA) [Ib_S1_P4E.1_K4.1_C4.1_H4.1_[T1G]_A4.1_F4.1_[A9G]_T4.1]	690
